Consider eleven molecules from patent US20230348588A1 (published 2023).

Where a chain is given by its changes, count along the chain named.

Assay [1] concerns the target T1, extracellular domain (ECD) of recombinant human Sortilin with a C-terminal HIS tag (ECD-huSortilin-HIS) (human, UniProt Q99523 78-755).
T1 construct: Bought (R&D Systems); also called human sortilin-ECD
T1 sequence: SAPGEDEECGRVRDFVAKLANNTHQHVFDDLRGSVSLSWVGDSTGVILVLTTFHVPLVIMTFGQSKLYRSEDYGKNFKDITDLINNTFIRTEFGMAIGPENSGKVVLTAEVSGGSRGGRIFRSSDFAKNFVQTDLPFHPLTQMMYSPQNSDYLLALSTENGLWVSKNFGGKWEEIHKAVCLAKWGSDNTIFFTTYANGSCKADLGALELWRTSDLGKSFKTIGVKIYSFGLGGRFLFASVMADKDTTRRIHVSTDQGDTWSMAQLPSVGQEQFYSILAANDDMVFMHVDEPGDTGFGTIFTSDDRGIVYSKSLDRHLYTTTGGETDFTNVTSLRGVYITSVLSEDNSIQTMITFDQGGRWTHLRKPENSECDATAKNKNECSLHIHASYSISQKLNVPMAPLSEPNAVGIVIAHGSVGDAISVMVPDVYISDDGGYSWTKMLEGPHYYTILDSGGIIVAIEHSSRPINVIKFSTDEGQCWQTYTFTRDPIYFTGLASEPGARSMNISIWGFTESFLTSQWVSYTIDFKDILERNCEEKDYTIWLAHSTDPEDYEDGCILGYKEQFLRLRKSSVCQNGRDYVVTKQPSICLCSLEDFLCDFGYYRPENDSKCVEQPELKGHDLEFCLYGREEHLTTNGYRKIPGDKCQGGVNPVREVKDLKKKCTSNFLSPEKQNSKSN
The assay can be described thus: SPR (Biacore T200), mAb captured on anti-mouse chip, sortilin as analyte, global 1:1 fit. On the procedure:
Analysis was performed using a Biacore T200 to compare the binding affinity of murine anti-huSortilin antibodies to recombinant human Sortilin. Anti-mouse antibody was immobilized on sensor chip CM5 (GE Healthcare Life Sciences) via amine coupling, and mouse antibodies (ligand) were captured to a level to ensure a maximum binding of analyte of 50 RU (approximately 100RU of ligand binding). Various concentrations of Sortilin (ranging from 0.1 nM to 300 nM) were passed over the captured ligand at 50 µL/min in running buffer (HBS + 0.05% P-20, 1 mg/mL BSA) for 180-300 s association time and 300-900 s dissociation time. Regeneration of the chip surface was accomplished by 2 short injections of 10 mM Glycine-HCI at pH 1.7. Data was blank subtracted to both a sensor not containing ligand and 0 nM analyte concentration. Analysis was performed using a global 1:1 fit with Biacore Insight Evaluation software (v2.0) with bulk refractive index set to zero RU.
On the technique in general: In SPR one partner is held on a chip, and binding of the other changes the refractive index at the surface.

Assay [2] concerns the target T1, extracellular domain (ECD) of …. The assay can be described thus: SPR (Biacore T200), mAb captured on anti-human chip, sortilin as analyte, global 1:1 fit. On the procedure:
Analysis was performed using a Biacore T200 to compare the binding affinity of chimeric and humanized antibodies to recombinant human Sortilin. Anti-Human antibody was immobilized on sensor chip CM5 (GE Healthcare Life Sciences) via amine coupling, and humanized antibodies (ligand) were captured to a level to ensure a maximum binding of analyte of 50 RU (approximately 100 RU of ligand binding). Various concentrations of Sortilin (ranging from 0.1 nM to 300 nM) were passed over the captured ligand at 50 µL/min in running buffer (HBS + 0.05% P-20, 1 mg/mL BSA) for 300 s association time and 1200 s dissociation time. Regeneration of the chip surface was accomplished by 2 short injections of 3 M MgCl. Data was blank subtracted to both a sensor not containing ligand and 0 nM analyte concentration. Analysis was performed using a global 1:1 fit with Biacore Insight Evaluation software (v2.0) with bulk refractive index set to zero RU.

B1: mouse monoclonal antibody 8H24 (antibody, V domains shown)
VH: QAYLQQSGTELVRPGASVKMSCKASGYTFTSYSMHWVKQTPRQGLEWIGAIYPGNDATSYNQKFKGKATLTVDKSSSTAYMQLSSLTSEDSAVYFCAREGYYGSSFEAWFASWGQGTLVTVSA
VL: DVLMTQTPLSLPVSLGDQASISCRSSQSIVHSNGNTYLEWYLQKPGQSPKLLIYKVSNRFSGVPDRFSGSGSGTDFTLKISRVEAEDLGVYYCFQGSHVLPTFGGGTKLEIK
notes: also called murine 8H24; m8H24
B1: in assay [1], the dissociation rate constant (koff) (as a rule, the rate constant with which the complex falls apart) was 0.00044 s⁻¹ and the kon (commonly the second-order rate constant of association) amounted to 96600 M⁻¹ s⁻¹.

B2: hu8H24VHv2/hu8H24VLv1 (antibody, V domains shown)
VH: QAQLVQSGAEVVKPGSSVKVSCKASGYTFTSYSMHWVRQAPGQGLEWIGAIYPGNDATSYNQKFKGRATLTVDKSTSTAYMELSSLRSEDTAVYFCAREGYYGSSFEAWFASWGQGTTVTVSS
VL: B1 VL with L3V, S14T, L15P, D17E, Q18P, K50Q, L88V, L109V
notes: Humanized variable regions; also called 8H24H2L1
In the case of B2, in assay [2], the koff came out at 0.00257 s⁻¹.

B3: hu8H24VHv2/hu8H24VLv2 (antibody, V domains shown)
VH: B2 VH
VL: B1 VL with L3V, L9S, S14T, L15P, D17E, Q18P, K50Q, K79T, L88V, L109V
notes: Humanized variable regions; also called 8H24H2L2
As for B3, in assay [2], the off-rate constant (koff) was found to be 0.0025 s⁻¹.

B4: chimeric 11M14 (antibody, human IgG1, kappa, L234A L235A, V domains shown)
VH: EVQLVESGGDLVKPGGSLKLSCAASGFTFNIYGMSWVRQTPDKRLEWVATISSGGIYTYYPDILKGRFTISRDNAKNTLYLQMSSLKSEDTAMYYCARHPGGAMDYWGQGTSVTVSS
VL: DIQMTQSPASLSVSVGETVTITCRVSENIYSNLAWYQQKQGKSPHLLVYAATNLADGVPSRFSGSGSGTQYSLKINSLQSEDFGSYYCQHFWGTPPWTFGGGTKLEIKR
Consider B4, for which, in assay [2], the dissociation rate constant (koff) turned out to be 0.000969 s⁻¹ and the on-rate constant (kon) was 384000 M⁻¹ s⁻¹.

B5: mouse monoclonal antibody 11M14 (antibody, V domains shown)
VH: B4 VH
VL: DIQMTQSPASLSVSVGETVTITCRVSENIYSNLAWYQQKQGKSPHLLVYAATNLADGVPSRFSGSGSGTQYSLKINSLQSEDFGSYYCQHFWGTPPWTFGGGTKLEIK
notes: also called murine 11M14; m11M14
With B5, in assay [1], the off-rate constant (koff) worked out at 0.000569 s⁻¹ and the kon worked out at 91100 M⁻¹ s⁻¹.

B6: mouse monoclonal antibody 2F18 (antibody, mouse IgG1, V domains shown)
VH: B4 VH with S53T, I63S, L64V, G101V, M104L
VL: B5 VL with M4V, V25A, A50T, N53T
Consider B6, for which, in assay [1], the koff stood at 0.000162 s⁻¹ and the kon was found to be 57600 M⁻¹ s⁻¹.

B7: mouse monoclonal antibody 5E20 (antibody, V domains shown)
VH: EVQLVESGGDLVKPGGSLKLSCAAPGFTFSTYGMSWVRQTPDKRLEWVAIISSGGSYTYYSDTVKGRFTISRDNAKNTLYLQMSSLKSEDTAMYYCSRSSSHWYFDVWGTGTTVTVSS
VL: DILMTQSPSSMSVSLGDTVSITCHASQGISSNIGWLQQKPGKSFKGLIYHGTNLKDGVPSRFSGSGSGADFSLTISSLESEDFADYFCVQYAQFPYTFGGGTKLEKR
notes: also called murine 5E20; m5E20
As for B7, in assay [1], the koff amounted to 0.000139 s⁻¹ and the kon came to 87700 M⁻¹ s⁻¹.

B8: mouse monoclonal antibody 2C14 (antibody, mouse IgG1, V domains shown)
VH: EVQLVESGGDLVKPGGSLKLSCAASGFTFNTHGMSWVRQTPDKSLEWVATISTGGFYTSYPDSVKGRFTISRDNAKNTLFLQMSSLKSEDTAMYYCAKSSSHWYFDVWGTGTTVTVSS
VL: B7 VL with K55E, F71Y, S80Y, F87Y, Q93H, K106I, R107K
As to B8, in assay [1], the koff was determined as 0.00245 s⁻¹ and the kon came out at 208000 M⁻¹ s⁻¹.

B9: chimeric 5E20 (antibody, human IgG1, kappa, L234A L235A, V domains shown)
VH: B7 VH
VL: DILMTQSPSSMSVSLGDTVSITCHASQGISSNIGWLQQKPGKSFKGLIYHGTNLKDGVPSRFSGSGSGADFSLTISSLESEDFADYFCVQYAQFPYTFGGGTKLEIKR
For the molecule B9, in assay [2], the koff came to 0.000396 s⁻¹ and the kon amounted to 597000 M⁻¹ s⁻¹.

B10: mouse monoclonal antibody 6B15 (antibody, mouse IgG1, V domains shown)
VH: B7 VH with Y80N, Y95F
VL: B7 VL with S7F, A69T, F87Y
On to B10, for which, in assay [1], the koff turned out to be 0.00013 s⁻¹ and the kon amounted to 127000 M⁻¹ s⁻¹.

B11: mouse monoclonal antibody 2P22 (antibody, mouse IgG2b, V domains shown)
VH: EVQLVESGGDLVKPGGSLKLSCAASGFTFSIYGMSWVRQTPDKKLEWVAAISSGGIYTYYPDSVKGRFTISRDNAKNTLYLQMSSLKSADTAMYYCTRNDYDWFAYWGQGTLVTVSA
VL: DIQMTQSPSSLSASLGERVSLTCRASQDIGSSLNWLQQEPDGTIKRLIYATSSLDSGVPKRFSGSRSGSDYSLTISSLESEDFVDYYCLQYASSPYTFGGGTKLEIK
For the molecule B11, in assay [1], the koff was 0.000237 s⁻¹ and the association rate constant (kon) worked out at 108000 M⁻¹ s⁻¹.
